Measured values as given in paper PMC9605875 (Cell Host & Microbe, 2022).

B1: 17C7 IgG (antibody, V domains shown)
VH: EVQLVESGGGVVQPGRSLRLSCAASGFTFSTYAMHWVRQAPGKGLEWVAVVSYDGRTKDYADSVKGRFTISRDNSKNTLYLQMNSLRTEDTAVYFCARERFSGAYFDYWGQGTLVTVSS
VL: EIVLTQSPATLSLSPGERATLSCRASQSVSSYLAWYQQKPGQAPRLLIYDASNRATGIPARFSGSGSGTDFTLTISSLEPEDFAVYSCQQRNNWPPTFGGGTKVEIK
notes: IgG1; copies: 2 + 2
B2: 1112-1 IgG (antibody, V domains shown)
VH: QVQLQQPGAELLKPGTSMKLSCKASGYTFSNYWMHWVKLRPGQGFEWIGEINPFNGGTNFNEKFKSKATLTVDRSSSTAYMQLSSVTSEDSAVYYCTIPLSDYGDWFFAVWGAGTTVTVSS
VL: DIVMTQSHKFMSTSIGDRVSITCKASQDVSTAVAWYRQKPGQSPKLLIYSASYRSTGVPDRFTGSGSGTDFTFTISSVQAEDLAVFYCQQHYSAPLTFGAGTKLELK
notes: copies: 2 + 2

Target: Wild-type RABV-G, untagged, full length, on transfected Expi293 cells (Rabies virus, Pasteur (PV) ectodomain; …, UniProt P08667, strain)
Test: flow cytometry on cells
Conditions: one partner purified

Binder | binding result
B1 | binds
B2 | binds
